Assay [1] has as its target recombinant murine low density lipoprotein receptor-related protein 6 (LRP6) (mouse) (UniProt O88572). Kind of assay: BLI; Amine reactive 2nd generation (AR2G) biosensors (ForteBio, BLItz); analyte at multiple concentrations from 0 to 100 ug/ml; global fit to a simple 1:1 Langmuir model; which partner was immobilised is not stated outright (the legend speaks of 100 ug/ml of Sostdc1 binding to rmLRP6, BMP2 and BMP7). On the technique in general: In BLI a coated tip is dipped into the sample, and binding shifts an interference pattern.

Assay [2] has as its target T1, recombinant murine Sostdc1 (sclerostin domain containing 1) (mouse, UniProt Q9CQN4 24-206).
T1 construct: sclerostin domain containing 1 (Sostdc1), murine recombinant protein; also called recombinant Sostdc1; murine recombinant Sostdc1
T1 sequence (looked up): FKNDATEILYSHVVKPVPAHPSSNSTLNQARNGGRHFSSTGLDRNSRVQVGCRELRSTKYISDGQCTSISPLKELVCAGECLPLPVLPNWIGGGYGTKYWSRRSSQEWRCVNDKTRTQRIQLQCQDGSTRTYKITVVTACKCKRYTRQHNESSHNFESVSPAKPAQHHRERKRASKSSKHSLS
Described as above. Conditions: both partners purified.

recombinant murine low density lipoprotein receptor-related protein 6 (LRP6) (mouse), sequence (O88572 20-1613): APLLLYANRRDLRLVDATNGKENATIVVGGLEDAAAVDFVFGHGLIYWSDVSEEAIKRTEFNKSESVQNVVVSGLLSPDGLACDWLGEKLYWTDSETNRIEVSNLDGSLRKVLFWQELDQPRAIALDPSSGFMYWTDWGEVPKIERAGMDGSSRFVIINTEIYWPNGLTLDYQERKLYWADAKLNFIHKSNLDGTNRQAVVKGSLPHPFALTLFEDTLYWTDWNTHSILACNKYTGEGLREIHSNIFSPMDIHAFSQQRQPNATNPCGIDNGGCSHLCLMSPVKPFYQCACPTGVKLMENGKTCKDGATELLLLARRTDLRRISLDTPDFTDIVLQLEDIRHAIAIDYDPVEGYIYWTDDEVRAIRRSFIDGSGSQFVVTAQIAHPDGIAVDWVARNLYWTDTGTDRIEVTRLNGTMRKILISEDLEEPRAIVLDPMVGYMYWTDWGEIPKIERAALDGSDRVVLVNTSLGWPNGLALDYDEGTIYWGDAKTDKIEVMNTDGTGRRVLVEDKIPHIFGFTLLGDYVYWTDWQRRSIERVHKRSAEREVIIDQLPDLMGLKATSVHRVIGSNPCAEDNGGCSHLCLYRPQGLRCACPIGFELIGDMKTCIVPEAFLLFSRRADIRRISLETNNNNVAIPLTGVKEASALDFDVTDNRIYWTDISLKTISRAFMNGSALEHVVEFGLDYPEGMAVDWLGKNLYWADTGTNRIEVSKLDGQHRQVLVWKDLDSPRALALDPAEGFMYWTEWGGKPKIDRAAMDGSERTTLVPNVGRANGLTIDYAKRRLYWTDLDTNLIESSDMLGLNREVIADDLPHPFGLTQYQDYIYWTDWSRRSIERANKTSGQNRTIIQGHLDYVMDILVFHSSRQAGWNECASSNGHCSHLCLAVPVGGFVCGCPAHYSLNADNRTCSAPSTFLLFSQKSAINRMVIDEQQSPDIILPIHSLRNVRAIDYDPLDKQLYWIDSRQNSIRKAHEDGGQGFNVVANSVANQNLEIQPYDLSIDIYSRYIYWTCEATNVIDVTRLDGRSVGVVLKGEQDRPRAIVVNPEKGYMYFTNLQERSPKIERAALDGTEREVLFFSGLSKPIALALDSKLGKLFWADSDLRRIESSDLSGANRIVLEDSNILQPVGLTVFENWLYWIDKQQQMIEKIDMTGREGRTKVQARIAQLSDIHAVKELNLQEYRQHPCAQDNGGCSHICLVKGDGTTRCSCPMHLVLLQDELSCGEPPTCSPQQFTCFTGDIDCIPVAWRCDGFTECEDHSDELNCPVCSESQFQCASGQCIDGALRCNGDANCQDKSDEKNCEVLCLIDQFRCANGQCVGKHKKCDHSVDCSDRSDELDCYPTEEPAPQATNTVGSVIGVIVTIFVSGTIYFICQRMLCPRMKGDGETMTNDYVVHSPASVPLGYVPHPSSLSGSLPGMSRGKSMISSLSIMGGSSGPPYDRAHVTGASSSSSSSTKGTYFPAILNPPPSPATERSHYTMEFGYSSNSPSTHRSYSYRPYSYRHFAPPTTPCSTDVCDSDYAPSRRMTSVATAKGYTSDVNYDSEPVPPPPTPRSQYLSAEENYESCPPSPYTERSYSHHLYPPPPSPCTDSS

As usually defined, the Kd is the constant that tells how readily two partners part at equilibrium. Turning to “recombinant murine Sostdc1 (sclerostin domain containing 1) (from UniProt Q9CQN4 24-206) (natural protein)”, the equilibrium dissociation constant (Kd) in assay [1] turned out to be 0.85 nM.

B1: bone morphogenetic protein 7 (BMP7) (ligand, UniProt P18075 293-431, looked up)
chain: STGSKQRSQNRSKTPKNQEALRMANVAENSSSDQRQACKKHELYVSFRDLGWQDWIIAPEGYAAYYCEGECAFPLNSYMNATNHAIVQTLVHFINPETVPKPCCAPTQLNAISVLYFDDSSNVILKKYRNMVVRACGCH
notes: BMP7, recombinant protein; also called ligand BMP7 protein
Take B1: the Kd in assay [2] is below 0.001 nM.

B2: bone morphogenetic protein 2 (BMP2) (ligand, UniProt P12643 283-396, looked up)
chain: QAKHKQRKRLKSSCKRHPLYVDFSDVGWNDWIVAPPGYHAFYCHGECPFPLADHLNSTNHAIVQTLVNSVNSKIPKACCVPTELSAISMLYLDENEKVVLKNYQDMVVEGCGCR
notes: BMP2, recombinant protein; also called BMP2 ligand protein
On to B2, for which the Kd in assay [2] stood at 9.57 nM.

The values are drawn from article PMC6458996, “Sostdc1: A soluble BMP and Wnt antagonist that is induced by the interaction between myeloma cells and osteoblast lineage cells” (Bone, 2019).
